Assay results taken from patent CN116819103A.

Target: 大熊猫TSHβ亚基特异序列多肽片段TSHβ-2 (大熊猫 (giant panda))
Experiment: indirect ELISA, peptide TSHβ-2 coated at 2 μg/mL, HRP goat anti-mouse, OD450

Chain of 大熊猫TSHβ亚基特异序列多肽片段TSHβ-2 (大熊猫 (giant panda)) (peptide, as listed by the source): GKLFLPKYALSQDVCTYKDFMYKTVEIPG

- 效价 (ELISA titer) (fold dilution): > 1e+06
B1: 大熊猫TSHβ单克隆抗体 (杂交瘤细胞株TSHB-B, CCTCC NO: C202283) (antibody, IgG1, V domains shown)
VH: EVKLVESGGGLVKPGGSLKLSCAASGFSFSRYAMSWVRHAPENRLEWVAAISRGGNLYYRDSVKGRFTISRDDARNILYLQMSSLRSEDTAMYYCTRDDYDEDWYFDVWGAGTTVTVSS
VL: DVLMTQTPLSLPVSLGEQASISCRSSQIIVHSNGNTYLEWYLQKPGQSPKLLIYKVSNRFSGVPDRFSGSGSGTDFTLKISRVEAEDLGVYYCFHGSHIPPTFGGGTKLEIK
